{"source": "FireProtDB (doi:10.1021/bi952198j)", "conditions": "Aspergillus oryzae (strain ATCC 42149 / RIB 40), Thermal, DSC, reversible: yes, whole UniProt chain shown", "note": "Values joined by “and” are separate entries in the source; they are usually repeats but may differ in a detail not shown here. Equal entries are not always repeated.", "data": [{"protein": "Guanyl-specific ribonuclease T1 wild type, P00651 (protein) MMYSKLLTLTTLLLPTALALPSLVERACDYTCGSNCYSSSDVSTAQAAGYQLHEDGETVGSNSYPHKYNNYEGFDFSVSSPYYEWPILSSGDVYSGGSPGADRVVFNENNQLAGVITHTGASGNNFVECT", "values": [{"measurement": "Tm", "setting": "pH 2, glycine 50 mM", "value": 34.9, "unit": "°C"}, {"measurement": "heat capacity change of unfolding", "setting": "pH 2, glycine 50 mM", "value": 1.33, "unit": "kcal/mol/K"}, {"measurement": "unfolding enthalpy (calorimetric)", "setting": "pH 2, glycine 50 mM", "value": 62.1, "unit": "kcal/mol"}, {"measurement": "unfolding enthalpy (van 't Hoff)", "setting": "pH 2, glycine 50 mM", "value": 78.9, "unit": "kcal/mol"}, {"measurement": "Tm", "setting": "pH 2.4, glycine 50 mM", "value": 41.4, "unit": "°C"}, {"measurement": "heat capacity change of unfolding", "setting": "pH 2.4, glycine 50 mM", "value": 0.53, "unit": "kcal/mol/K"}, {"measurement": "unfolding enthalpy (calorimetric)", "setting": "pH 2.4, glycine 50 mM", "value": 67.5, "unit": "kcal/mol"}, {"measurement": "unfolding enthalpy (van 't Hoff)", "setting": "pH 2.4, glycine 50 mM", "value": 87.3, "unit": "kcal/mol"}, {"measurement": "Tm", "setting": "pH 2.5, glycine 50 mM", "value": 45.8, "unit": "°C"}, {"measurement": "heat capacity change of unfolding", "setting": "pH 2.5, glycine 50 mM", "value": 0.7, "unit": "kcal/mol/K"}, {"measurement": "unfolding enthalpy (calorimetric)", "setting": "pH 2.5, glycine 50 mM", "value": 82.5, "unit": "kcal/mol"}, {"measurement": "unfolding enthalpy (van 't Hoff)", "setting": "pH 2.5, glycine 50 mM", "value": 90.4, "unit": "kcal/mol"}, {"measurement": "Tm", "setting": "pH 2.75, glycine 50 mM", "value": 48.5, "unit": "°C"}, {"measurement": "heat capacity change of unfolding", "setting": "pH 2.75, glycine 50 mM", "value": 0.04, "unit": "kcal/mol/K"}, {"measurement": "unfolding enthalpy (calorimetric)", "setting": "pH 2.75, glycine 50 mM", "value": 83.8, "unit": "kcal/mol"}, {"measurement": "unfolding enthalpy (van 't Hoff)", "setting": "pH 2.75, glycine 50 mM", "value": 95.4, "unit": "kcal/mol"}, {"measurement": "Tm", "setting": "pH 2.8, Citric acid 50 mM", "value": 48, "unit": "°C"}, {"measurement": "heat capacity change of unfolding", "setting": "pH 2.8, Citric acid 50 mM", "value": 0.94, "unit": "kcal/mol/K"}, {"measurement": "unfolding enthalpy (calorimetric)", "setting": "pH 2.8, Citric acid 50 mM", "value": 76.3, "unit": "kcal/mol"}, {"measurement": "unfolding enthalpy (van 't Hoff)", "setting": "pH 2.8, Citric acid 50 mM", "value": 93.4, "unit": "kcal/mol"}, {"measurement": "Tm", "setting": "pH 3, Citric acid 50 mM", "value": 50.5, "unit": "°C"}, {"measurement": "heat capacity change of unfolding", "setting": "pH 3, Citric acid 50 mM", "value": 0.96, "unit": "kcal/mol/K"}, {"measurement": "unfolding enthalpy (calorimetric)", "setting": "pH 3, Citric acid 50 mM", "value": 86.9, "unit": "kcal/mol"}, {"measurement": "unfolding enthalpy (van 't Hoff)", "setting": "pH 3, Citric acid 50 mM", "value": 101, "unit": "kcal/mol"}, {"measurement": "Tm", "setting": "pH 3.5, Citric acid 50 mM", "value": 56.5, "unit": "°C"}, {"measurement": "heat capacity change of unfolding", "setting": "pH 3.5, Citric acid 50 mM", "value": 1.08, "unit": "kcal/mol/K"}, {"measurement": "unfolding enthalpy (calorimetric)", "setting": "pH 3.5, Citric acid 50 mM", "value": 94.8, "unit": "kcal/mol"}, {"measurement": "unfolding enthalpy (van 't Hoff)", "setting": "pH 3.5, Citric acid 50 mM", "value": 104, "unit": "kcal/mol"}, {"measurement": "Tm", "setting": "pH 3.7, Citric acid 50 mM", "value": 58.3, "unit": "°C"}, {"measurement": "heat capacity change of unfolding", "setting": "pH 3.7, Citric acid 50 mM", "value": 1.65, "unit": "kcal/mol/K"}, {"measurement": "unfolding enthalpy (calorimetric)", "setting": "pH 3.7, Citric acid 50 mM", "value": 98.1, "unit": "kcal/mol"}, {"measurement": "unfolding enthalpy (van 't Hoff)", "setting": "pH 3.7, Citric acid 50 mM", "value": 105, "unit": "kcal/mol"}, {"measurement": "Tm", "setting": "pH 4.5, Citric acid 50 mM", "value": 58.7, "unit": "°C"}, {"measurement": "heat capacity change of unfolding", "setting": "pH 4.5, Citric acid 50 mM", "value": 1.58, "unit": "kcal/mol/K"}, {"measurement": "unfolding enthalpy (calorimetric)", "setting": "pH 4.5, Citric acid 50 mM", "value": 96.6, "unit": "kcal/mol"}, {"measurement": "unfolding enthalpy (van 't Hoff)", "setting": "pH 4.5, Citric acid 50 mM", "value": 101, "unit": "kcal/mol"}, {"measurement": "Tm", "setting": "pH 5, Citric acid 50 mM", "value": 60.1, "unit": "°C"}, {"measurement": "heat capacity change of unfolding", "setting": "pH 5, Citric acid 50 mM", "value": 0.91, "unit": "kcal/mol/K"}, {"measurement": "unfolding enthalpy (calorimetric)", "setting": "pH 5, Citric acid 50 mM", "value": 101, "unit": "kcal/mol"}, {"measurement": "unfolding enthalpy (van 't Hoff)", "setting": "pH 5, Citric acid 50 mM", "value": 105, "unit": "kcal/mol"}, {"measurement": "Tm", "setting": "pH 5.5, Citric acid 50 mM", "value": 65.3, "unit": "°C"}, {"measurement": "heat capacity change of unfolding", "setting": "pH 5.5, Citric acid 50 mM", "value": 1.26, "unit": "kcal/mol/K"}, {"measurement": "unfolding enthalpy (calorimetric)", "setting": "pH 5.5, Citric acid 50 mM", "value": 109, "unit": "kcal/mol"}, {"measurement": "unfolding enthalpy (van 't Hoff)", "setting": "pH 5.5, Citric acid 50 mM", "value": 123, "unit": "kcal/mol"}, {"measurement": "Tm", "setting": "pH 6, Citric acid 50 mM", "value": 64.7, "unit": "°C"}, {"measurement": "heat capacity change of unfolding", "setting": "pH 6, Citric acid 50 mM", "value": "1.92 kcal/mol/K and 1.88 kcal/mol/K"}, {"measurement": "unfolding enthalpy (calorimetric)", "setting": "pH 6, Citric acid 50 mM", "value": 114, "unit": "kcal/mol"}, {"measurement": "unfolding enthalpy (van 't Hoff)", "setting": "pH 6, Citric acid 50 mM", "value": 122, "unit": "kcal/mol"}, {"measurement": "Tm", "setting": "pH 6.5, Citric acid 50 mM", "value": 64.2, "unit": "°C"}, {"measurement": "heat capacity change of unfolding", "setting": "pH 6.5, Citric acid 50 mM", "value": 1.33, "unit": "kcal/mol/K"}, {"measurement": "unfolding enthalpy (calorimetric)", "setting": "pH 6.5, Citric acid 50 mM", "value": 115, "unit": "kcal/mol"}, {"measurement": "unfolding enthalpy (van 't Hoff)", "setting": "pH 6.5, Citric acid 50 mM", "value": 124, "unit": "kcal/mol"}]}]}
